Data reported in patent US20180346604A1.

Key:
[1] = target: Biotin-GCN4 peptide (yeast); assay: SPR (Biacore 3000), Biotin-GCN4 peptide captured on immobilised streptavidin, Fab-scFv injected, 1:1 binding model
[2] = target: Biotin-GCN4 peptide (yeast); assay: SPR, Biacore 3000, 25 C; biotin-GCN4 peptide captured on streptavidin CM5 chip, Fab-scFv as analyte from 30 nM, 1:1 model

B1: Fab-scFv (anti-GCN4 52SR4 scFv fused to a Fab, generated in-house) (Fab, part only; not given: carrier Fab and its linker, not shown: another chain or arm of the molecule; large carriers; small tags and cut ends)
scFv: DAVVTQESALTSSPGETVTLTCRSSTGAVTTSNYASWVQEKPDHLFTGLIGGTNNRAPGVPARFSGSLIGDKAALTITGAQTEDEAIYFCVLWYSDHWVFGCGTKLTVLGGGGGSGGGGSGGGGSGGGGSDVQLQQSGPGLVAPSQSLSITCTVSGFLLTDYGVNWVRQSPGKCLEWLGVIWGDGITDYNSALKSRLSVTKDNSKSQVFLKMNSLQSGDSARYYCVTGLFDYWGQGTTLTVSSAAAHHHHHHEQKLISEEDL
In the case of B1, the koff [1] is reported as 0.00027 s⁻¹, the kon [1] is reported as 510000 M⁻¹ s⁻¹ and the Kd [2] is reported as 0.516 nM.
